The target in the experiment is T1, His-KDM4A_(1–359)-Bio (human, UniProt O75164 1-359, biotin on the AviTag (>95% biotinylation)).
T1 chain: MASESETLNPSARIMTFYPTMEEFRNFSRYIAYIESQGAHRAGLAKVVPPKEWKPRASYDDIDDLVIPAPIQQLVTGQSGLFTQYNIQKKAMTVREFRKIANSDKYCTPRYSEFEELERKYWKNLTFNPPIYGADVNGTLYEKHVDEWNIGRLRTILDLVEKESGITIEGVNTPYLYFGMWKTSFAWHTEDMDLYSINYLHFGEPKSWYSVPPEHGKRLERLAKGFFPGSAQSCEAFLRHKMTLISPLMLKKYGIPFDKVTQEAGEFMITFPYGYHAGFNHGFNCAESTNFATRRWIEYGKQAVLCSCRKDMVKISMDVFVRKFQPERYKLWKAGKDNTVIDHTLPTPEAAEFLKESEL
Description: BLI. A general note: In BLI a coated tip is dipped into the sample, and binding shifts an interference pattern.

Drawing on paper PMC5384220 (2017), this text covers Kd for one molecule.

As usually defined, the Kd is the constant that tells how readily two partners part at equilibrium. Read a high Kd as a looser complex. With ARTKQTARKSTGGKA (trimethyl-lysine at 9) [H3(1–15)K9me3], binding was put at a Kd of 110 µM.
